Data published in publication PMC5764413 (PLoS Neglected Tropical Diseases, 2017).

Target: the molecule itself
Assay: cross-linking

Protein | binding result
RVFV MP12 N protein delN1-14, N-terminal 6His-tag (p14-N) (domain or fragment) AVDRNEIEQWVREFAYQGFDARRVIELLKQYGGADWEKDAKKMIVLALTRGNKPRRMMMKMSKEGKATVEALINKYKLKEGNPSRDELTLSRVAAALAGWTCQALVVLSEWLPVTGTTMDGLSPAYPRHMMHPSFAGMVDPSLPGDYLRAILDAHSLYLLQFSRVINPNLRGRTKEEVAATFTQPMNAAVNSNFISHEKRREFLKAFGLVDSNGKPSAAVMAAAQAYKTAA | binds
RVFV MP12 nucleocapsid protein (N), wild type, N-terminal 6His-tag (p14-N) (natural protein) MDNYQELRVQFAAQAVDRNEIEQWVREFAYQGFDARRVIELLKQYGGADWEKDAKKMIVLALTRGNKPRRMMMKMSKEGKATVEALINKYKLKEGNPSRDELTLSRVAAALAGWTCQALVVLSEWLPVTGTTMDGLSPAYPRHMMHPSFAGMVDPSLPGDYLRAILDAHSLYLLQFSRVINPNLRGRTKEEVAATFTQPMNAAVNSNFISHEKRREFLKAFGLVDSNGKPSAAVMAAAQAYKTAA | binds
